The values below come from US20160075780A1 (NB HEALTH LABORATORY, published 2016).

In test [1] the target is human EP4 with V5 and 6xHIS tags at the C-terminus, on the CHO cell line stably expressing human EP4 (human, UniProt P35408 1-488). Briefly: cell-based or functional assay.
Test [2] concerns the target T1, mouse EP4 with Cycle 3 GFP at the C-terminus, on 293FT cells (mouse, UniProt P32240 1-513).
T1 construct: whole, on cells; also called mEP4; pcDNA-DEST47-mEP4; not shown: Cycle 3 GFP from the pcDNA-DEST47 vector
Briefly: flow cytometry on 293FT cells transiently expressing EP-GFP. The protocol:
(§1) The pcDNA-DEST47-hEP1, pcDNA-DEST47-hEP2, pcDNA-DEST47-hEP3, pcDNA-DEST47-hEP4, pcDNA-DEST47-mEP1, pcDNA-DEST47-mEP2, pcDNA-DEST47-mEP3, and pcDNA-DEST47-mEP4 produced in (11) above (10 μg each) were each introduced into 293FT cells, using Lipofectamin 2000. On the following day, the cells were washed with HBSS, and were then removed from the cell culture dish using an enzyme-free cell dissociation buffer. The cells were then recovered by centrifugation. The thus recovered cells are referred to as 293FT cells transiently expressing EP.
(§2) The binding test of the anti-EP4 antibody of the present invention and the 293FT transiently expressing EP cells was carried out with a flow cytometer according to the method described in (6) above. 293FT cells (5×10⁵ cells) that transiently expressed each of 8 types of PGE₂ receptor subtypes were used. As a primary antibody, 1 μg of the anti-EP4 antibody NBG016-mAb14 or NBG016-mAb21, or a mouse isotype control antibody (manufactured by BioRegend) was used. As a secondary antibody, a PE-labeled anti-mouse IgG antibody was used.

Test [3] addresses T2, mouse EP1 with Cycle 3 GFP at the C-terminus, on 293FT cells (mouse, UniProt P35375 1-405).
T2 construct: whole, on cells; also called mEP1; pcDNA-DEST47-mEP1; not shown: Cycle 3 GFP from the pcDNA-DEST47 vector
T2 sequence (looked up): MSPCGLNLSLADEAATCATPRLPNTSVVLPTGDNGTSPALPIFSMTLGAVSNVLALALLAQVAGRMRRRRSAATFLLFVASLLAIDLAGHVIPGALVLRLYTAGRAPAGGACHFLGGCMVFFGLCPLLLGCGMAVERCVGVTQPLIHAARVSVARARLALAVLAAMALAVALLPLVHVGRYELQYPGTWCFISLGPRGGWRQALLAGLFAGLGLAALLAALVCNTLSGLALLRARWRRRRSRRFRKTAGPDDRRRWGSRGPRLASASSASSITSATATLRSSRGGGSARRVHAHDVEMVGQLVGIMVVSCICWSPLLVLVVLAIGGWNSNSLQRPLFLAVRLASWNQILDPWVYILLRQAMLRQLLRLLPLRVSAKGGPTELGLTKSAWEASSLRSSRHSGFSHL
Described as above. How it is done:
as §1, §2

The target of test [4] is T3, human EP1 with Cycle 3 GFP at the C-terminus, on 293FT cells (human, UniProt P34995 1-402).
T3 construct: whole, on cells; also called hEP1; pcDNA-DEST47-hEP1; not shown: Cycle 3 GFP from the pcDNA-DEST47 vector
T3 sequence (looked up): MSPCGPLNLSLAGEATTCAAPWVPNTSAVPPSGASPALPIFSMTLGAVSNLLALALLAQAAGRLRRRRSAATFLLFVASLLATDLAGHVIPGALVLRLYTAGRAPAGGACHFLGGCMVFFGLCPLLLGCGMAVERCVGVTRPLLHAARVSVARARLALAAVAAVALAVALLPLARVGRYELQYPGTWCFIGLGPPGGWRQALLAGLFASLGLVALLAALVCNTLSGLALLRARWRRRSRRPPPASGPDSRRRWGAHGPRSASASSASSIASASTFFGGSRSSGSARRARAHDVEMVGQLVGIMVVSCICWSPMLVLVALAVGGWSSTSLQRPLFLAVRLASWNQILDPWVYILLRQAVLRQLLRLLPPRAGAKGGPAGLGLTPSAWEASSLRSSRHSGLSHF
The test is described as above. How it is done:
as §1, §2

In test [5] the target is T4, mouse EP3 with Cycle 3 GFP at the C-terminus, on 293FT cells (mouse, UniProt P30557 1-365).
T4 construct: whole, on cells; also called mEP3; pcDNA-DEST47-mEP3; not shown: Cycle 3 GFP from the pcDNA-DEST47 vector
T4 sequence (looked up): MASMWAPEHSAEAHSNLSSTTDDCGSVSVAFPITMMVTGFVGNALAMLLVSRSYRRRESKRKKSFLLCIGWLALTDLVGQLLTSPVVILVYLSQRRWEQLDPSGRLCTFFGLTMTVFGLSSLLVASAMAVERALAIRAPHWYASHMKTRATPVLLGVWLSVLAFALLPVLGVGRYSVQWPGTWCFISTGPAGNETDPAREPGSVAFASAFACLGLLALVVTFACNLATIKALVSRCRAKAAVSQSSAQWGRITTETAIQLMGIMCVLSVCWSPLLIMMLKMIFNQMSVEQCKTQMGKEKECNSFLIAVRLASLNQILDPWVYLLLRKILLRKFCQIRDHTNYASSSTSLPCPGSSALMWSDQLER
The description is as above. How it is done:
as §1, §2

Test [6] addresses T5, human EP2 with Cycle 3 GFP at the C-terminus, on 293FT cells (human, UniProt P43116 1-358).
T5 construct: whole, on cells; also called hEP2; pcDNA-DEST47-hEP2; not shown: Cycle 3 GFP from the pcDNA-DEST47 vector
The description is as above. How it is done:
as §1, §2

Test [7] deals with T6, mouse EP2 with Cycle 3 GFP at the C-terminus, on 293FT cells (mouse, UniProt Q62053 1-362).
T6 construct: whole, on cells; also called mEP2; pcDNA-DEST47-mEP2; not shown: Cycle 3 GFP from the pcDNA-DEST47 vector
The description is as above. The protocol:
as §1, §2

Several values for one entry are separate records, joined by “and”; a condition that tells them apart may be missing. Equal values may be shown once.

human EP4 with V5 and 6xHIS tags at the C-terminus, on the CHO cell line stably expressing human EP4, sequence (P35408 whole entry): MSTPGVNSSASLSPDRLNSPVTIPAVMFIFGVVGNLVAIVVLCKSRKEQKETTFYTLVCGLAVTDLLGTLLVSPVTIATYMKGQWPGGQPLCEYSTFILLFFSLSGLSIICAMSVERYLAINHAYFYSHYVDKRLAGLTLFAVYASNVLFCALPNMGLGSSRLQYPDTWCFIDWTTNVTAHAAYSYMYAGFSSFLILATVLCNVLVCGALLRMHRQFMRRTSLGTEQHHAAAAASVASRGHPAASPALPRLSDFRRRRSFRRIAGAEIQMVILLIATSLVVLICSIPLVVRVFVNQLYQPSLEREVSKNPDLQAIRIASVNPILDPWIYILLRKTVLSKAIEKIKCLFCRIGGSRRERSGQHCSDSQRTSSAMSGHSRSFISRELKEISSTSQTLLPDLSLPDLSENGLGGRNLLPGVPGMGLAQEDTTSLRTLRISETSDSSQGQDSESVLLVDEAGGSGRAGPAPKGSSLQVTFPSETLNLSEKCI
T6 sequence (Q62053 whole entry): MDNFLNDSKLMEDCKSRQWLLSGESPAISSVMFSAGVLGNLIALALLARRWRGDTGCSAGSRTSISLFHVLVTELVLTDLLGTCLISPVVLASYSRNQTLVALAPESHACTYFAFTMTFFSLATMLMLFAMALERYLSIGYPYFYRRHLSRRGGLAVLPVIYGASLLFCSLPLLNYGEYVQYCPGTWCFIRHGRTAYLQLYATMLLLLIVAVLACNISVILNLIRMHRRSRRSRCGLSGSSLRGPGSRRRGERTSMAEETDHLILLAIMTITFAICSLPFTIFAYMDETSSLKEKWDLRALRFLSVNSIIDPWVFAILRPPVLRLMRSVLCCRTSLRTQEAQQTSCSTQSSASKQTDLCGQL
T1 sequence (P32240 whole entry): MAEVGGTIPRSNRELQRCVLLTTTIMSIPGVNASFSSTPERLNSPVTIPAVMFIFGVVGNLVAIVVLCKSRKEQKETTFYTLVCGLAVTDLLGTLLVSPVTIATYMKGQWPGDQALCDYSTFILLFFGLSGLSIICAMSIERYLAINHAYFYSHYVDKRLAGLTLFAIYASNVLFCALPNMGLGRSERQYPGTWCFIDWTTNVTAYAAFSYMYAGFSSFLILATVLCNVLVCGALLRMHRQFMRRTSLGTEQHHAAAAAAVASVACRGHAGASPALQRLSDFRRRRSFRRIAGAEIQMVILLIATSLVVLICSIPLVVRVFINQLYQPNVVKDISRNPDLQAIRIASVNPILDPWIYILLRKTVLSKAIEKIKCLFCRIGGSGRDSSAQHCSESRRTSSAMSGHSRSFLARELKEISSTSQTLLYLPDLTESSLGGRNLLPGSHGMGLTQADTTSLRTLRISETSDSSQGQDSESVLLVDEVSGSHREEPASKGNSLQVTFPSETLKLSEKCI
T5 sequence (P43116 whole entry): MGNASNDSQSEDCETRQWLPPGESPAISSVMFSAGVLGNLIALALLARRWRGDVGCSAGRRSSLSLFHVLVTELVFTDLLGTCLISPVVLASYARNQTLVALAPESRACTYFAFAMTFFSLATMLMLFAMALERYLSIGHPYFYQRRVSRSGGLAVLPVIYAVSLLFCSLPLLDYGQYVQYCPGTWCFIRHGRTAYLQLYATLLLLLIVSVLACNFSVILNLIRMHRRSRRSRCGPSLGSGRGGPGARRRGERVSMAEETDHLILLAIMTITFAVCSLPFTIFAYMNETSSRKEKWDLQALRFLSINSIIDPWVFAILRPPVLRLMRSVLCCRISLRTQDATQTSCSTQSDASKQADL

B1: NBG016-mAb14 (antibody, V domains shown)
VH: EIQLQQSGPELVKPGASVKVSCKASGFPFSTYNIYWVIQSHGKRLEWIGYIDPYNGGTSYNQKFRGKATLTVDKSSSTAYMHLNRLTSEDSAVYYCARRWYTYDGDWFAYWGQGTLVTVSA
VL: DIKMTQSPSSMYVSLGERVTITCKASQDINRYLSWFQQKPGKSPKTLIYRANRLLDGVPSRFSGSGSGLDYSLTISSLEYEDMGNYYCLQYDEFPFTFGSGTKLEIKR
As for B1, the “IC50 of inhibition of PGE2-induced cAMP production in the CHO cell line stably expressing human EP4 (5×10^-11 M PGE2)” value in test [1] is 0.15 µg/mL and ~1 nM.

B2: NBG016-mAb21 (antibody, mouse IgG2a)
heavy: EIQLQQSGPELVKPGASVKVSCKASGFPFSTYNIYWVIQSHGKSLEWIGYIDPYNGGTSYNQKFRGKATLTVDKSSSTAYMHLNSLTSEDSAVYYCARRWYTYDGDWFAYWGQGTLVTVSAAKTTAPSVYPLAPVCGDTTGSSVTLGCLVKGYFPEPVTLTWNSGSLSSGVHTFPAVLQSDLYTLSSSVTVTSSTWPSQSITCNVAHPASSTKVDKKIEPRGPTIKPCPPCKCPAPNLLGGPSVFIFPPKIKDVLMISLSPIVTCVVVDVSEDDPDVQISWFVNNVEVHTAQTQTHREDYNSTLRVVSALPIQHQDWMSGKEFKCKVNNKDLPAPIERTISKPKGSVRAPQVYVLPPPEEEMTKKQVTLTCMVTDFMPEDIYVEWTNNGKTELNYKNTEPVLDSDGSYFMYSKLRVEKKNWVERNSYSCSVVHEGLHNHHTTKSFSHSPGK
light: DIKMTQSPSSMYVSLGERVTITCKASQDINRYLSWFQQKPGKSPKTLIYRANRMLDGVPSRFSGSGSGQDYSLTISSLEYEDMGNYYCLQYDEFPFTFGSGTKLEIKRADAAPTVSIFPPSSEQLTSGGASVVCFLNNFYPKDINVKWKIDGSERQNGVLNSWTDQDSKDSTYSMSSTLTLTKDEYERHNSYTCEATHKTSTSPIVKSFNRNEC
notes: Mouse IgG2a, kappa, purified from hybridoma supernatant; the recombinant antibody was expressed from the same genes; The entries may carry a signal peptide; also called recombinant antibody NBG016-mAb21; anti-EP4 antibody
Consider B2, for which the binding result in test [2], in test [3], in test [4], in test [5], in test [6] and in test [7] was “no binding (tested: 1 µg per 5×10^5 cells)” throughout.

B3: mouse IgG1 antibody NBG016-mAb21 (antibody)
heavy: EIQLQQSGPELVKPGASVKVSCKASGFPFSTYNIYWVIQSHGKSLEWIGYIDPYNGGTSYNQKFRGKATLTVDKSSSTAYMHLNSLTSEDSAVYYCARRWYTYDGDWFAYWGQGTLVTVSSAKTTPPSVYPLAPGSAAQTNSMVTLGCLVKGYFPEPVTVTWNSGSLSSGVHTFPAVLQSDLYTLSSSVTVPSSPRPSETVTCNVAHPASSTKVDKKIVPRDCGCKPCICTVPEVSSVFIFPPKPKDVLTITLTPKVTCVVVDISKDDPEVQFSWFVDDVEVHTAQTQPREEQFNSTFRSVSELPIMHQDWLNGKEFKCRVNSAAFPAPIEKTISKTKGRPKAPQVYTIPPPKEQMAKDKVSLTCMITDFFPEDITVEWQWNGQPAENYKNTQPIMNTNGSYFVYSKLNVQKSNWEAGNTFTCSVLHEGLHNHHTEKSLSHSPGK
light: DIKMTQSPSSMYVSLGERVTITCKASQDINRYLSWFQQKPGKSPKTLIYRANRMLDGVPSRFSGSGSGQDYSLTISSLEYEDMGNYYCLQYDEFPFTFGSGTKLEIKRADAAPTVSIFPPSSEQLTSGGASVVCFLNNFYPKDINVKWKIDGSERQNGVLNSWTDQDSKDSTYSMSSTLTLTKDEYERHNSYTCEATHKTSTSPIVKSFNRNEC
As for B3, the “IC50 of inhibition of PGE2-induced cAMP production in the CHO cell line stably expressing human EP4 (1.5×10^-10 M PGE2)” value in test [1] was 1.1 µg/mL and ~6.9 nM.

B4: NBG016-mAb9 (antibody, mouse IgG1, kappa, V domains shown)
VH: QVQLKESGPGLVAPSQSLSITCTVSGFSLSSYTIHWVRQPPGRGLEWLGVIWAGGSTNYNSALMSRLRISKDTSRSQVFLKVNSLQTDDSAIYYCARDDFGYGFAYWGQGTLVTVSA
VL: DVLMTQTPLSLPVSLGDQASISCRSSQSLVHTTGNTYLEWYLQKPGQSPKLLIYKISRRFSGVPDRFSGSGSGTDFTLRISRVEAADLGIYYCFQGSHIPPTFGAGTKLERKR
notes: Mouse IgG1, kappa, purified from hybridoma supernatant; the recombinant antibody (293FT supernatant) was expressed from the same genes; The entries may carry a signal peptide; also called recombinant antibody NBG016-mAb9
With B4, the “IC50 of inhibition of PGE2-induced cAMP production in the CHO cell line stably expressing human EP4 (1.5×10^-10 M PGE2)” value in test [1] is 4.6 µg/mL and ~28.8 nM. The binding result in test [2], in test [3], in test [4], in test [5], in test [6] and in test [7] was “no binding” in each case.
